Laboratory results: patent US20080226675A1

Experiments:
[1] = target: mutant A3G D128K, cmyc-tagged (human) (UniProt Q9HC16); test: cell-based or functional assay
[2] = target: Apolipoprotein B mRNA-editing enzyme-catalytic polypeptide-like 3G (A3G), wild type, cmyc-tagged (human) (UniProt Q9HC16); test: cell-based or functional assay

HIV-1 viral infectivity factor (Vif)
infectivity of HIV-GFP produced from D3GFPD128K-carrying 293T cells in the presence of HIV-1 Vif, percent of control [1]: 1 % of control | inhibition of HIV-GFP replication (GFP+ 293T cells by flow cytometry) by pD3GFPD128K in the presence of HIV-1 Vif [1]: 90% | infectivity of HIV-GFP produced from D3GFP-carrying 293T cells in the presence of HIV-1 Vif, percent of control [2]: 89 % of control

macaque simian immunodeficiency virus Vif (SIVmac Vif)
percent green fluorescent 293T cells after infection with D3GFPD128K vector produced in the presence of SIVmac Vif [1]: 26% | percent green fluorescent 293T cells after infection with D3GFP vector produced in the presence of SIVmac Vif [2]: 24%
